In US20250026846A1 (JCR PHARMACEUTICALS, published 2025):
Where a chain is given by its changes, count along the chain named. Read-outs that look alike come from different tables or passages of the source.

B1: humanized anti-hTfR antibody No. 3 (antibody, human IgG1, kappa)
light: DIVMTQTPLSLSVTPGQPASISCRSSQSLVHSNGNTYLHWYLQKPGQSPQLLIYKVSNRFSGVPDRFSGSGSGTDFTLKISRVEAEDVGVYYCSQSTHVPWTFGQGTKVEIKRTVAAPSVFIFPPSDEQLKSGTASVVCLLNNFYPREAKVQWKVDNALQSGNSQESVTEQDSKDSTYSLSSTLTLSKADYEKHKVYACEVTHQGLSSPVTKSFNRGEC
heavy: not shown
notes: IgG1; Expressed from pE-hygr(LC3) and pE-neo(HC3) in CHO cells; also called Humanized anti-hTfR antibody 3
B2: humanized anti-hTfR antibody No. 3-4 (antibody, human IgG1, kappa, V domains shown)
VH: EVQLVQSGAEVKKPGESLKISCKGSGYSFTNYWLGWVRQMPGKGLEWMGDIYPGGDYPTYSEKFKVQVTISADKSISTAYLQWSSLKASDTAMYYCARSGNYDEVAYWGQGTLVTVSS
VL: DIVMTQTPLSLSVTPGQPASISCRSSQSLVHSNGNTYLHWYLQKPGQSPQLLIYKVSNRFSGVPDRFSGSGSGTDFTLKISRVEAEDVGVFFCSQSTHVPWTFGQGTKVEIKR
notes: IgG1
B3: humanized anti-hTfR antibody No. 3N (antibody, human IgG1, kappa, V domains shown)
VH: B2 VH with T30M, W83L
VL: B2 VL with F91Y, F92Y
notes: IgG1; also called Humanized anti-hTfR antibody 3N
B4: humanized anti-hTfR antibody No. 3-2 (antibody, human IgG1, kappa)
light: B1 light with T7S, S12P, Q17E
heavy: not shown
notes: IgG1
B5: humanized anti-hTfR antibody No. 3-3 (antibody, human IgG1, kappa)
light: B1 light with S12P, Q17E, K108R, V109L
heavy: not shown
notes: IgG1
B6: anti-hTfR antibody No. 3 (mouse antibody produced by hybridoma Clone 3 line) (antibody, V domains shown)
VH: EVQLQESGAELVRPGTSVKISCKASGYSFTNYWLGWVKQRPGHGLEWIGDIYPGGDYPTYSEKFKVKAILTADTSSSSVYLHLSSLTSEDSAVYFCARSGNYDEVAYWGQGTLVTVST
VL: B2 VL with P8T, S12P, T14S, P15L, Q17D, P18Q, Q50K, V88L, Q105G, V109L
notes: Whole mouse antibody purified from hybridoma supernatant on Protein G; also called mouse anti-hTfR antibody No. 3; pre-humanized anti-hTfR antibody
B7: recombinant monkey TfR (r monkey TfR: Sino Biological Inc.), crab-eating monkey TfR extracellular region with a histidine tag at the N-terminus (receptor)
chain: CKGVEPKTECERLAGTESPAREEPEEDFPAAPRLYWDDLKRKLSEKLDTTDFTSTIKLLNENLYVPREAGSQKDENLALYIENQFREFKLSKVWRDQHFVKIQVKDSAQNSVIIVDKNGGLVYLVENPGGYVAYSKAATVTGKLVHANFGTKKDFEDLDSPVNGSIVIVRAGKITFAEKVANAESLNAIGVLIYMDQTKFPIVKADLSFFGHAHLGTGDPYTPGFPSFNHTQFPPSQSSGLPNIPVQTISRAAAEKLFGNMEGDCPSDWKTDSTCKMVTSENKSVKLTVSNVLKETKILNIFGVIKGFVEPDHYVVVGAQRDAWGPGAAKSSVGTALLLKLAQMFSDMVLKDGFQPSRSIIFASWSAGDFGSVGATEWLEGYLSSLHLKAFTYINLDKAVLGTSNFKVSASPLLYTLIEKTMQDVKHPVTGRSLYQDSNWASKVEKLTLDNAAFPFLAYSGIPAVSFCFCEDTDYPYLGTTMDTYKELVERIPELNKVARAAAEVAGQFVIKLTHDTELNLDYERYNSQLLLFLRDLNQYRADVKEMGLSLQWLYSARGDFFRATSRLTTDFRNAEKRDKFVMKKLNDRVMRVEYYFLSPYVSPKESPFRHVFWGSGSHTLSALLESLKLRRQNNSAFNETLFRNQLALATWTIQGAANALSGDVWDIDNEF
notes: Bought from Sino Biological; also called r monkey TfR-ECD (Histag); not shown: histidine tag at the N-terminus

Experiments:
[1] = target: B7; assay: BLI (Octet RED96), His-tagged TfR ECD on Ni-NTA sensor
Description: (§1) Each of the sample solutions prepared above by 2-fold dilution steps was added, 200 μL/well, to a 96-well plate, black (Greiner Bio-One Inc.). Each of the r human TfR-ECD (Histag) solution and the r monkey TfR-ECD (Histag) solutions prepared above was added, 200 μL/well, to predetermined wells. To respective wells for baseline, dissociation and washing were added HBS-P+, 200 μL/well. To wells for regeneration were added 10 mM Glycine-HCl (pH 1.7), 200 μL/well. To wells for activation was added 0.5 mM NiCl₂ solution, 200 μL/well. The plate and biosensor (Biosensor/Ni-NTA: ForteBio Inc., a division of Pall Corporation) were set in the prescribed positions of Octet RED96.
(§2) The measurement was performed at 25 to 30° C.
(§3) The affinity of the humanized anti-hTfR antibodies obtained in Example 13 to human and monkey TfRs was measured by the method described in Example 7.

[2] = target: T1, recombinant human TfR (r human TfR: Sino Biological Inc.), hTfR extracellular region with a histidine tag at … (human, UniProt P02786 89-760); assay: as above
T1 construct: Bought from Sino Biological; also called r human TfR-ECD (Histag); recombinant hTfR; not shown: histidine tag at the N-terminus
Description: as §1, §2, §3

[3] = target: T1, recombinant human TfR (r human TfR: …); assay: as above; remark: listed apart in the source
Description: as §1, §2
(§4) The affinity of humanized anti-hTfR antibody No. 3 obtained in Example 13 and humanized anti-hTfR antibody No. 3N obtained in Example 17 to human TfR and human TfR was measured by the method described in Example 7. […] Besides, the measurement indicating the affinity of humanized anti-hTfR antibody No. 3 to human TfR differed from that shown in Table 6, but is an experimental error.

[4] = target: B7; assay: as above
Description: as §1, §2
as §4, with “TfR and monkey TfR was” for “TfR and human TfR was”, “3 to monkey TfR differed” for “3 to human TfR differed”, “in Table 7, but is” for “in Table 6, but is”

[5] = target: B7; assay: BLI (Octet RED96)
[6] = target: B7; assay: BLI (Octet RED96), His-tagged TfR ECD on Ni-NTA sensor
Description: (§5) The purified product of anti-hTfR antibody No. 3 was subjected to 2-fold dilution steps with HBS-P+ (10 mM HEPES containing 150 mM NaCl, 50 μM EDTA and 0.05% Surfactant P20) to prepare antibody solutions of 7 different concentrations, 0.78125 to 50 nM (0.117 to 7.5 μg/mL). The antibody solution was used as the sample solution. The r human and r monkey TfRs were respectively diluted with HBS-P+ to prepare 25 μg/mL solutions, which were used as r human TfR-ECD (Histag) solution and r monkey TfR-ECD (Histag) solution, respectively.
as §1, §2

[7] = target: T1, recombinant human TfR (r human TfR: …); assay: as above; remark: listed apart in the source
Description: as §5, §1, §2

[8] = target: T2, Fab GS-GAA (fusion protein between Fab anti-hTfR antibody 3N and hGAA); assay: BLI (Octet RED96), His-tagged TfR ECD on Ni-NTA sensor; Table 21, Fab-GS3-GAA
T2 construct: also called Fab GS3-GAA; Fab-GS3-GAA
T2 sequence (heavy, as listed by the source, chain 2 of 2, one chain of several): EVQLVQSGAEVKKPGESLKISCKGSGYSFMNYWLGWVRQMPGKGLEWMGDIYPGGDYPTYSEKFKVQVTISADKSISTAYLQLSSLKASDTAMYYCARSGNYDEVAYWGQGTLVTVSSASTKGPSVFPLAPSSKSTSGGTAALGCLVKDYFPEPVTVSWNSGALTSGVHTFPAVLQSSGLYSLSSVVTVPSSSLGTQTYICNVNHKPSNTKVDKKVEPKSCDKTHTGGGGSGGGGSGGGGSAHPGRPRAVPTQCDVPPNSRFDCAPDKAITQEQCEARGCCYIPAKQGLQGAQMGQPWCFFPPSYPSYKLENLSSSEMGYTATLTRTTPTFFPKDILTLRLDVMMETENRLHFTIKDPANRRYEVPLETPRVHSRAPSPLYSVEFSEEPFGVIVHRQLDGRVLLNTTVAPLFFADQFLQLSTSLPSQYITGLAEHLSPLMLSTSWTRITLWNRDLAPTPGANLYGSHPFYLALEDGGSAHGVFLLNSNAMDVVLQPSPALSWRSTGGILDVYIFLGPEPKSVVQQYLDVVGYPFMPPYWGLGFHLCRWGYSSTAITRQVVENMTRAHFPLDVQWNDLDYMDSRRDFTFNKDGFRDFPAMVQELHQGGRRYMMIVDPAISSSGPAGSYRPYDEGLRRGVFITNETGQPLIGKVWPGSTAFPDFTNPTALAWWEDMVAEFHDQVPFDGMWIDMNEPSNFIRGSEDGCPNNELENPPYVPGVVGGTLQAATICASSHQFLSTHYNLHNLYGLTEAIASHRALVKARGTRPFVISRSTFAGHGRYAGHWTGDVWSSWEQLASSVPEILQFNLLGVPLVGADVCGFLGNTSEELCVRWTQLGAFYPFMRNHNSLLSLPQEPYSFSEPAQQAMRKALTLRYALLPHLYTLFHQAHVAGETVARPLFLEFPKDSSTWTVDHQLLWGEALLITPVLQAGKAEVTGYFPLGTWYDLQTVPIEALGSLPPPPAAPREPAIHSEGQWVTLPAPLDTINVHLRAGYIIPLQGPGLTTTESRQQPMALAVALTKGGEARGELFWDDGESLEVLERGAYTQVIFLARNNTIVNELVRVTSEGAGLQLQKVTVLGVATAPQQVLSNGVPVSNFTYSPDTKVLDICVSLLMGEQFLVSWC

[9] = target: T2, Fab GS-GAA (fusion protein between Fab …); assay: BLI (Octet RED96), His-tagged TfR ECD on Ni-NTA sensor
Description: as §1, §2
(§6) The affinity of the hGAA-anti-hTfR antibody 3N (IgG4) obtained in Example 26 to human TfR and monkey TfR was measured in accordance with the method described in Example 23.

[10] = target: hGAA-anti-hTfR antibody 3N (IgG4); assay: as above
hGAA-anti-hTfR antibody 3N (IgG4), sequence (heavy, as listed by the source, chain 2 of 2, one chain of several): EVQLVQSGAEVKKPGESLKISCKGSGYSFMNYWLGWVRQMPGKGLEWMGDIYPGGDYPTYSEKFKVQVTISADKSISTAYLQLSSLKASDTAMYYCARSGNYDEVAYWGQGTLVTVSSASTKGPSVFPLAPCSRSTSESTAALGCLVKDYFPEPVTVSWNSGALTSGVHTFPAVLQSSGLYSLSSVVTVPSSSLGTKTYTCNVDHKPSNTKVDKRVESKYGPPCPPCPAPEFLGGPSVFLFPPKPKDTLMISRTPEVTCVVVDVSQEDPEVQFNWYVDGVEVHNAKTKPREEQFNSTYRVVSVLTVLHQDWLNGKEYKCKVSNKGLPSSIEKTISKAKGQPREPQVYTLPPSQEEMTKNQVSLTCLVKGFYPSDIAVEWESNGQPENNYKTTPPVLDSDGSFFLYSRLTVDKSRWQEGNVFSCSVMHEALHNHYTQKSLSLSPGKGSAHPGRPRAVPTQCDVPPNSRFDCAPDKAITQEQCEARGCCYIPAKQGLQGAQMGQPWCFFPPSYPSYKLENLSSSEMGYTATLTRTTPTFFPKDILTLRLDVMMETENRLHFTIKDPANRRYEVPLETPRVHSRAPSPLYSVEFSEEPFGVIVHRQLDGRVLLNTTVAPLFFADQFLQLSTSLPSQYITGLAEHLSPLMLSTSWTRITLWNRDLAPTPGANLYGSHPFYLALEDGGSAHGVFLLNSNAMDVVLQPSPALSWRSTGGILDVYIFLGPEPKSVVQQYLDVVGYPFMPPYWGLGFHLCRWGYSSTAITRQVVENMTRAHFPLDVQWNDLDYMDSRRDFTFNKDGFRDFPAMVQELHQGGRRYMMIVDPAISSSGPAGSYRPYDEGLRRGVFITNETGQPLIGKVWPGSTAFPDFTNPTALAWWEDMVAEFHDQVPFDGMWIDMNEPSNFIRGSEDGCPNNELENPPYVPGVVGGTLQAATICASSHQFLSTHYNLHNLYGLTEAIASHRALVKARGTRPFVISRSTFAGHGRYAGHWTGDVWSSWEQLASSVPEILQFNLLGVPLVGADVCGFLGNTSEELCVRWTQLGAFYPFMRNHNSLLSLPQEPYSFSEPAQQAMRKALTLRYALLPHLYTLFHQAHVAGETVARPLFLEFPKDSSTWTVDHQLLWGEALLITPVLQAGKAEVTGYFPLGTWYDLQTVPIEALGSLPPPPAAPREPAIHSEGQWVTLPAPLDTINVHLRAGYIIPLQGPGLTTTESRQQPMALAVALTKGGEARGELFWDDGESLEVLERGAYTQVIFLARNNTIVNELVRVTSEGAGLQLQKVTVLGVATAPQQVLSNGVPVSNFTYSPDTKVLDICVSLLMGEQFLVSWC
Description: as §1, §2, §6

[11] = target: T2, Fab GS-GAA (fusion protein between Fab …); assay: BLI (Octet RED96), His-tagged TfR ECD on Ni-NTA sensor; Table 17-2, Fab GS-GAA

Binder: B1
Kd [1]: 1.12 nM
koff [1]: 0.000676 s⁻¹
kon [1]: 603000 M⁻¹ s⁻¹
Kd [2]: < 0.001 nM
koff [2]: < 1e-07 s⁻¹
kon [2]: 1.19e+06 M⁻¹ s⁻¹
Kd [3]: < 0.001 nM
koff [3]: < 1e-07 s⁻¹
kon [3]: 847000 M⁻¹ s⁻¹
Kd [4]: 1.32 nM
koff [4]: 0.000806 s⁻¹
kon [4]: 609000 M⁻¹ s⁻¹

Binder: B2
Kd [1]: 0.26 nM
koff [1]: 0.000135 s⁻¹
kon [1]: 519000 M⁻¹ s⁻¹
Kd [2]: < 0.001 nM
koff [2]: < 1e-07 s⁻¹
kon [2]: 1.01e+06 M⁻¹ s⁻¹

Binder: B3
Kd [3]: < 0.001 nM
koff [3]: < 1e-07 s⁻¹
kon [3]: 784000 M⁻¹ s⁻¹
Kd [4]: 0.0507 nM
koff [4]: 1.96e-05 s⁻¹
kon [4]: 386000 M⁻¹ s⁻¹
KD relative to that of humanized anti-hTfR antibody No. 3 [5]: ~0.033 fold
fold affinity against humanized anti-hTfR antibody No. 3 [5]: ~30 fold

Binder: B4
Kd [1]: 1.77 nM
koff [1]: 0.000876 s⁻¹
kon [1]: 495000 M⁻¹ s⁻¹
Kd [2]: 0.0239 nM
koff [2]: 1.45e-05 s⁻¹
kon [2]: 606000 M⁻¹ s⁻¹

Binder: B5
Kd [1]: 1.91 nM
koff [1]: 0.000932 s⁻¹
kon [1]: 488000 M⁻¹ s⁻¹
Kd [2]: 0.0209 nM
koff [2]: 1.25e-05 s⁻¹
kon [2]: 600000 M⁻¹ s⁻¹

Binder: B6
Kd [6]: < 0.001 nM
koff [6]: < 1e-07 s⁻¹
kon [6]: 389000 M⁻¹ s⁻¹
Kd [7]: < 0.001 nM
koff [7]: < 1e-07 s⁻¹
kon [7]: 653000 M⁻¹ s⁻¹

Binder: B7
Kd [8]: 30.5 nM
koff [8]: 0.0145 s⁻¹
kon [8]: 473000 M⁻¹ s⁻¹
koff [9]: 0.00501 s⁻¹
kon [9]: 329000 M⁻¹ s⁻¹
Kd [10]: < 0.001 nM
koff [10]: < 1e-07 s⁻¹
kon [10]: 203000 M⁻¹ s⁻¹
Kd [11]: 15.2 nM
